Data taken from US20240076330A1.

Legend:
[1] = biological target: IFNGR1 (human) (UniProt P15260); assay: cell-based or functional assay
[2] = biological target: IL-6 receptor (IL6R) (human) (UniProt P08887); assay: cell-based or functional assay
UniProt P08887, sequence (P08887 20-468): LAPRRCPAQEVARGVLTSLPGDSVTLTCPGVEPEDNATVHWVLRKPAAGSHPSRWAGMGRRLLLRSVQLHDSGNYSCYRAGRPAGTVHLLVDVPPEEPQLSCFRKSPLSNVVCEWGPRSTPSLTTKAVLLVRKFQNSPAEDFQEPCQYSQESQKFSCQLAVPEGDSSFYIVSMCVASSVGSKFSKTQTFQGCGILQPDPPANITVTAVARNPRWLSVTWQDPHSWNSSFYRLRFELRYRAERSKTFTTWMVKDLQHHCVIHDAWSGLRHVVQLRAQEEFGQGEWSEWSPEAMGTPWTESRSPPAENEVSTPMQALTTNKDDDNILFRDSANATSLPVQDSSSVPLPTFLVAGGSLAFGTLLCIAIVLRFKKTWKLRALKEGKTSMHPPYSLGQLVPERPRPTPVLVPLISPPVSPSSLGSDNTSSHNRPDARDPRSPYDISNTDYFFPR

UniProt P15260, sequence (P15260 18-489): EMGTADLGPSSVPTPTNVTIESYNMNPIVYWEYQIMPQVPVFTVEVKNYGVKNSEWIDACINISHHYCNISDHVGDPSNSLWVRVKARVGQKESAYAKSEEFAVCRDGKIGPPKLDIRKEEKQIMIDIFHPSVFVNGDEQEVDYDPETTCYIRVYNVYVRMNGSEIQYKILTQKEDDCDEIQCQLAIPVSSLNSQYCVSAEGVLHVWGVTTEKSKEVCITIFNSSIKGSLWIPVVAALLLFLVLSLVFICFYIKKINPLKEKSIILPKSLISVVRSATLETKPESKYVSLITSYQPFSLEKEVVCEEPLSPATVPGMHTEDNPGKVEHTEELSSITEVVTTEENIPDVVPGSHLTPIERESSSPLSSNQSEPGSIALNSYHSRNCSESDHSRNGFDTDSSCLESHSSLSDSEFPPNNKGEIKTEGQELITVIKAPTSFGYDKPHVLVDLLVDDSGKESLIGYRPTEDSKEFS

Substance	pSTAT1 levels after IFNγ in THP1-Cas9 cells with gRNAs targeting IFNGR1 (fold decrease) [1]	percent of cells with increased pSTAT1 after IFNγ, clusters with gRNAs targeting IFNGR1 [1]	pSTAT1 levels after IL-6 in THP1-Cas9 cells with gRNAs targeting IL6R (fold reduction) [2]	pSTAT3 levels after IL-6 in THP1-Cas9 cells with gRNAs targeting IL6R (fold reduction) [2]
IFNγ (from UniProt P01579 24-166) (ligand)	15	25%	–	–
IL-6 (from UniProt P05231 30-212) (ligand)	–	–	2	2
